The numbers were not newly measured in PMC3839795, which cites them from elsewhere.

The series addresses Asp3 (position 2, ----SDNKTYG). Description: NMR. The following applies: free peptide in solution (details not stated).

For the protein SDNKTYG [Heptapeptide derived from turkey ovomucoid third domain (OMTKY3) (Meleagris gallopavo)], the pKa result was “about 3.6”.
